Experiments:
[1] = test system: OMP-OV19 ovarian tumor cells; assay: OMP-OV19 ovarian tumor xenograft model, tumor volume; format: in vivo, NOD/SCID mice
Protocol: FIGS. 1A and 1B. Inhibition of ovarian tumor growth in vivo by a RSPO-LGR pathway inhibitor in combination with a chemotherapeutic agent. OMP-OV19 ovarian tumor cells were injected subcutaneously into NOD/SCID mice. FIG. 1A. Mice were treated with control antibody (-[…]-), paclitaxel (-▪-), a combination of paclitaxel plus anti-RSPO3 antibody 131R010 (also referred to as OMP-131R10) administered the same day (-▴-), or a combination of paclitaxel plus 131R010, wherein 131R010 was administered 2 days prior to paclitaxel (-▾-). Antibodies were dosed at 25 mg/kg and administered every other week. Paclitaxel was dosed at 20 mg/kg and administered every other week. Tumor volumes were measured on the indicated days post-treatment and shown as the mean±SEM. FIG. 1B. Tumor volumes of individual animals in the two combination treatment groups on Day 61.
OncoMed xenograft models described herein were established at OncoMed Pharmaceuticals from minimally passaged, patient-derived tumor specimens. The tumor specimens were examined by a pathologist and classified as a specific tumor type. […]
Single cell suspensions of xenograft OMP-OV19 ovarian tumor cells (1×10^5 cells) were injected subcutaneously into NOD/SCID mice. […] Tumor volumes were measured on the indicated days post-treatment and are shown as the mean±SEM in FIG. 1A.

[2] = test system: OMP-LU77 lung tumor cells; assay: OMP-LU77 lung tumor xenograft model, tumor volume; format: in vivo, NOD/SCID mice
Protocol: FIG. 2. Inhibition of lung tumor growth in vivo by a RSPO-LGR pathway inhibitor in combination with a chemotherapeutic agent. OMP-LU77 lung tumor cells were injected subcutaneously into NOD/SCID mice. Mice were treated with control antibody (-▪-), paclitaxel (-▴-), a combination of paclitaxel and anti-RSPO3 antibody 131R010 (also referred to as OMP-131R10) administered the same day (-▾-), or a combination of paclitaxel plus anti-RSPO3 antibody 131R010, wherein 131R010 was administered 2 days prior to paclitaxel (-[…]-). Antibodies were dosed every three weeks at 25 mg/kg. Taxol was dosed every three weeks at 20 mg/kg. Tumor volumes were measured on the indicated days post-treatment.
(§1) OncoMed xenograft models described herein were established at OncoMed Pharmaceuticals from minimally passaged, patient-derived tumor specimens. The tumor specimens were examined by a pathologist and classified as a specific tumor type. OncoMed relies on these classifications unless further analyses are done on any specific tumor and a reclassification is deemed necessary.
Single cell suspensions of xenograft OMP-LU77 lung tumor cells (5×10^4 cells) were injected subcutaneously into NOD/SCID mice. Tumors were allowed to grow 34 days until they reached an average volume of approximately 125 mm^3. […] Tumor volumes were measured on the indicated days post-treatment.

[3] = test system: OMP-C8 colon tumor cells; assay: OMP-C8 colorectal tumor xenograft model, tumor volume; format: in vivo, NOD/SCID mice; conditions: for tumor growth inhibition, staggered vs same-day dosing: OMP-131R010 25 mg/kg every other week, compared with dosing on the same day
Protocol: FIGS. 3A and 3B. Inhibition of colorectal tumor growth in vivo by a RSPO-LGR pathway inhibitor in combination with chemotherapeutic agents. OMP-C8 colorectal tumor cells were injected subcutaneously into NOD/SCID mice. FIG. 3A. Mice were treated with control antibody (-▪-), nab-paclitaxel (ABRAXANE) (-Δ-), a combination of nab-paclitaxel and anti-RSPO3 antibody 131R010 administered the same day (-[…]-), or a combination of nab-paclitaxel plus anti-RSPO3 antibody 131R010, wherein 131R010 was administered 2 days prior to nab-paclitaxel (-▾-). Antibodies were dosed every other week at 25 mg/kg. Nab-paclitaxel was dosed once a week at 30 mg/kg. Tumor volumes were measured on the indicated days post-treatment. FIG. 3B. Mice were treated with control antibody (-▪-), 5-FU and irinotecan (-◯-), a combination of 5-FU, irinotecan, and anti-RSPO3 antibody 131R010 administered the same day (-▴-), or a combination of 5-FU and irinotecan plus anti-RSPO3 antibody 131R010, wherein 131R010 was administered 2 days prior to 5-FU and irinotecan (-⋄-). Antibodies were dosed every other week at 25 mg/kg. 5-FU and irinotecan were dosed at 50 mg/kg and 5 mg/kg, respectively, once a week. Tumor volumes were measured on the indicated days post-treatment.
as §1
Single cell suspensions of xenograft OMP-C8 colon tumor cells (5×10^4 cells) were injected subcutaneously into NOD/SCID mice. OMP-C8 colon tumor cells comprise an inactivating mutation in the APC gene and express low levels of RSPO3 (data not shown). Tumors were allowed to grow 23 days until they reached an average volume of approximately 100 mm^3. Tumor-bearing mice were randomized into four groups (n=9 animals per group). […] Tumor volumes were measured on the indicated days post-treatment.

[4] = test system: xenograft models; assay: Several xenograft models (summary of Examples 1-3); format: in vivo

B1: OMP-131R010: anti-RSPO3 antibody; heavy chain variable region SEQ ID NO:38, light chain variable region SEQ ID NO:39; plasmids ATCC PTA-120420 and PTA-120421 (antibody, V domains shown)
VH: QVQLVQSGAEVKKPGASVKVSCKASGYTFTDYSIHWVRQAPGQGLEWIGYIYPSNGDSGYNQKFKNRVTMTRDTSTSTAYMELSRLRSEDTAVYYCATYFANNFDYWGQGTTLTVSS
VL: DIQMTQSPSSLSASVGDRVTITCKASQSVDYDGDSYMNWYQQKPGKAPKLLIYAASNLESGVPSRFSGSGSGTDFTLTISPVQAEDFATYYCQQSNEDPLTFGAGTKLELKR
notes: anti-RSPO3 antibody; plasmids ATCC PTA-120420 and PTA-120421
B1 was tested. Which “tumor growth inhibition, staggered vs same-day dosing” value ([1]; OMP-131R010 25 mg/kg every other week, given two days prior to paclitaxel 20 mg/kg every other week, compared with dosing on the same day) did it give?
The value was “greater tumor growth inhibition than dosing on the same day”.

And the “tumor size over the course of the treatment” value (“tumor size over the course” below) ([1]; staggered administration: OMP-131R010 25 mg/kg two days prior to paclitaxel 20 mg/kg, every other week)?
Its value is “decreased tumor size”.

What about the “tumor growth inhibition, staggered vs same-day dosing” value ([2]; OMP-131R010 25 mg/kg given two days prior to paclitaxel 20 mg/kg, both once every three weeks, compared with dosing on the same day) of the same molecule?
Its value is “greater tumor growth inhibition than dosing on the same day”.

What about the “tumor size over the course” value ([2]; staggered administration: OMP-131R010 25 mg/kg two days prior to paclitaxel 20 mg/kg, once every three weeks) of the same molecule?
The value was “decreased tumor size”.

And the “tumor growth inhibition, staggered vs same-day dosing” value ([3]; given two days prior to fluorouracil 50 mg/kg and irinotecan 5 mg/kg weekly)?
Its value is “did not result in greater tumor growth inhibition than dosing on the same day”.

And the “tumor growth inhibition, staggered vs same-day dosing” value ([3]; given two days prior to nab-paclitaxel 30 mg/kg weekly)?
The value was “greater tumor growth inhibition than dosing on the same day”.

And the “efficacy in inhibiting tumor growth, vs combination with a non-mitotic-inhibitor chemotherapeutic agent” value ([3]; OMP-131R010 and nab-paclitaxel administered in a sequential manner, compared with OMP-131R010 plus fluorouracil and irinotecan)?
The value was “greater efficacy in inhibiting tumor growth”.

What about the “inhibition of tumor growth, staggered vs co-administration” value ([4]; OMP-131R010 administered prior to a taxane, compared with co-administration) of the same molecule?
The value was “better at inhibiting tumor growth”.

And the “inhibition of tumor growth by the combination” value ([4]; combination of OMP-131R010 and a taxane)?
Its value is “effective at inhibiting tumor growth”.

And the “tumor size over the course” value ([4]; staggered administration of OMP-131R010 and taxane)?
Its value is “decreased tumor size”.
